Reference: the supplement of paper PMC5998384

Experiments:
HeLa Kyoto [1] = test: thermal stability score vs G1/S (z-score of summed log2 fold changes over temperatures); higher = more thermally stable than in G1/S
HeLa Kyoto [2] = test: solubility change mitosis vs G1/S (difference of NP-40 vs SDS log2 ratios) (log2 ratio difference); higher = more soluble in mitosis
HeLa Kyoto [3] = test: solubility in G1/S (NP-40 vs SDS abundance) (log2 ratio); higher = more soluble; conditions: cell cycle stage: G1/S
HeLa Kyoto [4] = test: melting temperature (median over replicates), in situ; higher = more thermally stable
[5] = cell cycle stage: early G1 (4.5 h after nocodazole release)
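Wherever melting temperature (median over replicates), in situ is given: HeLa Kyoto cells synchronized by double thymidine or nocodazole block, proteins quantified by TMT10plex mass spectrometry, three independent biological replicates.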
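Wherever solubility change mitosis vs G1/S (difference of NP-40 vs SDS log2 ratios) is given: synchronized HeLa Kyoto cells (double thymidine block for G1/S, nocodazole release for mitosis), protein amounts in NP-40 versus SDS lysates quantified by mass spectrometry, three biological replicates.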
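Wherever solubility in G1/S (NP-40 vs SDS abundance) is given: HeLa Kyoto cells arrested at G1/S by double thymidine block, proteins quantified by TMT10plex mass spectrometry in mild NP-40 versus SDS extracts, three biological replicates.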
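Wherever thermal stability score vs G1/S (z-score of summed log2 fold changes over temperatures) is given: synchronized HeLa Kyoto cells, proteins quantified by TMT10plex mass spectrometry, three biological replicates, mitosis taken 0.5 h after nocodazole release, G1/S directly after double thymidine block.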

| Substance | thermal stability score (HeLa Kyoto [1]; [5]) | thermal stability score (HeLa Kyoto [1]; cell cycle stage: mitosis) | solubility change mitosis (log2) (HeLa Kyoto [2]) | solubility in G1/S (log2) (HeLa Kyoto [3]) | melting temperature (HeLa Kyoto [4]; cell cycle stage: G1/S) | melting temperature (HeLa Kyoto [4]; cell cycle stage: mitosis) |
| --- | --- | --- | --- | --- | --- | --- |
| MGSRASTLLRDEELEEIKKETGFSHSQITRLYSRFTSLDKGENGTLSREDFQRIPELAINPLGDRIINAFFPEGEDQVNFRGFMRTLAHFRPIEDNEKSKDVNGPEPLNSRSNKLHFAFRLYDLDKDEKISRDELLQVLRMMVGVNISDEQLGSIADRTIQEADQDGDSAISFTEFVKVLEKVDVEQKMSIRFLH [CHP1] | -0.997 | 0.839 | -0.016 | 0.256 | 51.8 °C | 52.6 °C |
| MAERAALEELVKLQGERVRGLKQQKASAELIEEEVAKLLKLKAQLGPDESKQKFVLKTPKGTRDYSPRQMAVREKVFDVIIRCFKRHGAEVIDTPVFELKETLMGKYGEDSKLIYDLKDQGGELLSLRYDLTVPFARYLAMNKLTNIKRYHIAKVYRRDNPAMTRGRYREFYQCDFDIAGNFDPMIPDAECLKIMCEILSSLQIGDFLVKVNDRRILDGMFAICGVSDSKFRTICSSVDKLDKVSWEEVKNEMVGEKGLAPEVADRIGDYVQQHGGVSLVEQLLQDPKLSQNKQALEGLGDLKLLFEYLTLFGIDDKISFDLSLARGLDYYTGVIYEAVLLQTPAQAGEEPLGVGSVAAGGRYDGLVGMFDPKGRKVPCVGLSIGVERIFSIVEQRLEALEEKIRTTETQVLVASAQKKLLEERLKLVSELWDAGIKAELLYKKNPKLLNQLQYCEEAGIPLVAIIGEQELKDGVIKLRSVTSREEVDVRREDLVEEIKRRTGQPLCIC [HARS] | 5.06 | 4.5 | -0.113 | 0.354 | 53.5 °C | 53 °C |
| MAERRRHKKRIQEVGEPSKEEKAVAKYLRFNCPTKSTNMMGHRVDYFIASKAVDCLLDSKWAKAKKGEEALFTTRESVVDYCNRLLKKQFFHRALKVMKMKYDKDIKKEKDKGKAESGKEEDKKSKKENIKDEKTKKEKEKKKDGEKEESKKEETPGTPKKKETKKKFKLEPHDDQVFLDGNEVYVWIYDPVHFKTFVMGLILVIAVIAATLFPLWPAEMRVGVYYLSVGAGCFVASILLLAVARCILFLIIWLITGGRHHFWFLPNLTADVGFIDSFRPLYTHEYKGPKADLKKDEKSETKKQQKSDSEEKSDSEKKEDEEGKVGPGNHGTEGSGGERHSDTDSDRREDDRSQHSSGNGNDFEMITKEELEQQTDGDCEEDEEEENDGETPKSSHEKS [SEC62] | -4.12 | -4.37 | 0.0142 | -0.134 | 55.5 °C | 55.4 °C |
| MEPAVSEPMRDQVARTHLTEDTPKVNADIEKVNQNQAKRCTVIGGSGFLGQHMVEQLLARGYAVNVFDIQQGFDNPQVRFFLGDLCSRQDLYPALKGVNTVFHCASPPPSSNNKELFYRVNYIGTKNVIETCKEAGVQKLILTSSASVIFEGVDIKNGTEDLPYAMKPIDYYTETKILQERAVLGANDPEKNFLTTAIRPHGIFGPRDPQLVPILIEAARNGKMKFVIGNGKNLVDFTFVENVVHGHILAAEQLSRDSTLGGKAFHITNDEPIPFWTFLSRILTGLNYEAPKYHIPYWVAYYLALLLSLLVMVISPVIQLQPTFTPMRVALAGTFHYYSCERAKKAMGYQPLVTMDDAMERTVQSFRHLRRVK [NSDHL] | 1.89 | 1.38 | -0.127 | -0.0523 | 53.1 °C | 53 °C |
| SLC27A2 | 2.25 | 2.44 | -0.133 | -0.335 | 50 °C | 50.3 °C |
| MSRSPDAKEDPVECPLCMEPLEIDDINFFPCTCGYQICRFCWHRIRTDENGLCPACRKPYPEDPAVYKPLSQEELQRIKNEKKQKQNERKQKISENRKHLASVRVVQKNLVFVVGLSQRLADPEVLKRPEYFGKFGKIHKVVINNSTSYAGSQGPSASAYVTYIRSEDALRAIQCVNNVVVDGRTLKASLGTTKYCSYFLKNMQCPKPDCMYLHELGDEAASFTKEEMQAGKHQEYEQKLLQELYKLNPNFLQLSTGSVDKNKNKVTPLQRYDTPIDKPSDSLSIGNGDNSQQISNSDTPSPPPGLSKSNPVIPISSSNHSARSPFEGAVTESQSLFSDNFRHPNPIPSGLPPFPSSPQTSSDWPTAPEPQSLFTSETIPVSSSTDWQAAFGFGSSKQPEDDLGFDPFDVTRKALADLIEKELSVQDQPSLSPTSLQNSSSHTTTAKGPGSGFLHPAAATNANSLNSTFSVLPQRFPQFQQHRAVYNSFSFPGQAARYPWMAFPRNSIMHLNHTANPTSNSNFLDLNLPPQHNTGLGGIPVAGEEEVKVSTMPLSTSSHSLQQGQQPTSLHTTVA [CNOT4] | 1.12 | 0.182 | 0.0198 | 0.401 | 52.7 °C | 53 °C |
| MFKKFDEKENVSNCIQLKTSVIKGIKNQLIEQFPGIEPWLNQIMPKKDPVKIVRCHEHIEILTVNGELLFFRQREGPFYPTLRLLHKYPFILPHQQVDKGAIKFVLSGANIMCPGLTSPGAKLYPAAVDTIVAIMAEGKQHALCVGVMKMSAEDIEKVNKGIGIENIHYLNDGLWHMKTYK [MCTS1] | -1.29 | -1.6 | -0.0597 | 0.267 | 54.8 °C | 54.5 °C |
| MKLLTRAGSFSRFYSLKVAPKVKATAAPAGAPPQPQDLEFTKLPNGLVIASLENYSPVSRIGLFIKAGSRYEDFSNLGTTHLLRLTSSLTTKGASSFKITRGIEAVGGKLSVTATRENMAYTVECLRGDVDILMEFLLNVTTAPEFRRWEVADLQPQLKIDKAVAFQNPQTHVIENLHAAAYRNALANPLYCPDYRIGKVTSEELHYFVQNHFTSARMALIGLGVSHPVLKQVAEQFLNMRGGLGLSGAKANYRGGEIREQNGDSLVHAAFVAESAVAGSAEANAFSVLQHVLGAGPHVKRGSNTTSHLHQAVAKATQQPFDVSAFNASYSDSGLFGIYTISQATAAGDVIKAAYNQVKTIAQGNLSNTDVQAAKNKLKAGYLMSVESSECFLEEVGSQALVAGSYMPPSTVLQQIDSVANADIINAAKKFVSGQKSMAASGNLGHTPFVDEL [UQCRC2] | -1.64 | -4.8 | -0.00613 | 0.243 | 55.8 °C | 54.7 °C |
| MAGELADKKDRDASPSKEERKRSRTPDRERDRDRDRKSSPSKDRKRHRSRDRRRGGSRSRSRSRSKSAERERRHKERERDKERDRNKKDRDRDKDGHRRDKDRKRSSLSPGRGKDFKSRKDRDSKKDEEDEHGDKKPKAQPLSLEELLAKKKAEEEAEAKPKFLSKAEREAEALKRRQQEVEERQRMLEEERKKRKQFQDLGRKMLEDPQERERRERRERMERETNGNEDEEGRQKIREEKDKSKELHAIKERYLGGIKKRRRTRHLNDRKFVFEWDASEDTSIDYNPLYKERHQVQLLGRGFIAGIDLKQQKREQSRFYGDLMEKRRTLEEKEQEEARLRKLRKKEAKQRWDDRHWSQKKLDEMTDRDWRIFREDYSITTKGGKIPNPIRSWKDSSLPPHILEVIDKCGYKEPTPIQRQAIPIGLQNRDIIGVAETGSGKTAAFLIPLLVWITTLPKIDRIEESDQGPYAIILAPTRELAQQIEEETIKFGKPLGIRTVAVIGGISREDQGFRLRMGCEIVIATPGRLIDVLENRYLVLSRCTYVVLDEADRMIDMGFEPDVQKILEHMPVSNQKPDTDEAEDPEKMLANFESGKHKYRQTVMFTATMPPAVERLARSYLRRPAVVYIGSAGKPHERVEQKVFLMSESEKRKKLLAILEQGFDPPIIIFVNQKKGCDVLAKSLEKMGYNACTLHGGKGQEQREFALSNLKAGAKDILVATDVAGRGIDIQDVSMVVNYDMAKNIEDYIHRIGRTGRAGKSGVAITFLTKEDSAVFYELKQAILESPVSSCPPELANHPDAQHKPGTILTKKRREETIFA [DDX23] | 1.14 | 3.64 | 0.24 | -1.02 | 48.8 °C | 50.4 °C |
| MMAAVPPGLEPWNRVRIPKAGNRSAVTVQNPGAALDLCIAAVIKECHLVILSLKSQTLDAETDVLCAVLYSNHNRMGRHKPHLALKQVEQCLKRLKNMNLEGSIQDLFELFSSNENQPLTTKVCVVPSQPVVELVLMKVLGACKLLLRLLDCCCKTFLLTVKHLGLQEFIILNLVMVGLVSRLWVLYKGVLKRLILLYEPLFGLLQEVARIQPMPYFKDFTFPSDITEFLGQPYFEAFKKKMPIAFAAKGINKLLNKLFLINEQSPRASEETLLGISKKAKQMKINVQNNVDLGQPVKNKRVFKEESSEFDVRAFCNQLKHKATQETSFDFKCSQSRLKTTKYSSQKVIGTPHAKSFVQRFREAESFTQLSEEIQMAVVWCRSKKLKAQAIFLGNKLLKSNRLKHLEAQGTSLPKKLECIKTSICNHLLRGSGIKTSKHHLRQRRSQNKFLRRQRKPQRKLQSTLLREIQQFSQGTRKSATDTSAKWRLSHCTVHRTDLYPNSKQLLNSGVSMPVIQTKEKMIHENLRGIHENETDSWTVMQINKNSTSGTIKETDDIDDIFALMGV [NEPRO] | -0.703 | -1.65 | 0.574 | -0.993 | 49.7 °C | 50.3 °C |
| MATTATCTRFTDDYQLFEELGKGAFSVVRRCVKKTSTQEYAAKIINTKKLSARDHQKLEREARICRLLKHPNIVRLHDSISEEGFHYLVFDLVTGGELFEDIVAREYYSEADASHCIHQILESVNHIHQHDIVHRDLKPENLLLASKCKGAAVKLADFGLAIEVQGEQQAWFGFAGTPGYLSPEVLRKDPYGKPVDIWACGVILYILLVGYPPFWDEDQHKLYQQIKAGAYDFPSPEWDTVTPEAKNLINQMLTINPAKRITADQALKHPWVCQRSTVASMMHRQETVECLRKFNARRKLKGAILTTMLVSRNFSAAKSLLNKKSDGGVKKRKSSSSVHLMPQSNNKNSLVSPAQEPAPLQTAMEPQTTVVHNATDGIKGSTESCNTTTEDEDLKGRVPEGRSSRDRTAPSAGMQPQPSLCSSAMRKQEIIKITEQLIEAINNGDFEAYTKICDPGLTSFEPEALGNLVEGMDFHKFYFENLLSKNSKPIHTTILNPHVHVIGEDAACIAYIRLTQYIDGQGRPRTSQSEETRVWHRRDGKWLNVHYHCSGAPAAPLQ [CAMK2G] | -0.442 | -0.0382 | 0.162 | -0.382 | 49.6 °C | 48.9 °C |
| MLSRSRCVSRAFSRSLSAFQKGNCPLGRRSLPGVSLCQGPGYPNSRKVVINNSVFSVRFFRTTAVCKDDLVTVKTPAFAESVTEGDVRWEKAVGDTVAEDEVVCEIETDKTSVQVPSPANGVIEALLVPDGGKVEGGTPLFTLRKTGAAPAKAKPAEAPAAAAPKAEPTAAAVPPPAAPIPTQMPPVPSPSQPPSGKPVSAVKPTVAPPLAEPGAGKGLRSEHREKMNRMRQRIAQRLKEAQNTCAMLTTFNEIDMSNIQEMRARHKEAFLKKHNLKLGFMSAFVKASAFALQEQPVVNAVIDDTTKEVVYRDYIDISVAVATPRGLVVPVIRNVEAMNFADIERTITELGEKARKNELAIEDMDGGTFTISNGGVFGSLFGTPIINPPQSAILGMHGIFDRPVAIGGKVEVRPMMYVALTYDHRLIDGREAVTFLRKIKAAVEDPRVLLLDL [DLST] | -2.5 | -3.04 | -0.0493 | 0.0922 | 61.7 °C | 65.9 °C |
| MQEKDASSQGFLPHFQHFATQAIHVGQDPEQWTSRAVVPPISLSTTFKQGAPGQHSGFEYSRSGNPTRNCLEKAVAALDGAKYCLAFASGLAATVTITHLLKAGDQIICMDDVYGGTNRYFRQVASEFGLKISFVDCSKIKLLEAAITPETKLVWIETPTNPTQKVIDIEGCAHIVHKHGDIILVVDNTFMSPYFQRPLALGADISMYSATKYMNGHSDVVMGLVSVNCESLHNRLRFLQNSLGAVPSPIDCYLCNRGLKTLHVRMEKHFKNGMAVAQFLESNPWVEKVIYPGLPSHPQHELVKRQCTGCTGMVTFYIKGTLQHAEIFLKNLKLFTLAESLGGFESLAELPAIMTHASVLKNDRDVLGISDTLIRLSVGLEDEEDLLEDLDQALKAAHPPSGSHS [CTH] | -1.76 | -0.741 | -0.134 | 0.283 | 59 °C | 58.5 °C |
